Data on nine substances can be found in paper PMC6195595.

Assay [1] deals with Kj12C N-terminal docking domain (Xenorhabdus stockiae KJ12.1). In words: ITC; 50 µM NDD (or Kj12C construct) in the cell titrated with 1 mM CDD peptide; 20 °C; 50 mM sodium phosphate pH 6.5, 100 mM NaCl; one site binding model; three independent titrations. (ITC needs no label: the signal is the heat of the interaction.)
In assay [2] the target is Kj12C-^NDD (N-terminal docking domain of Kj12C) (Xenorhabdus stockiae KJ12.1). In words: ITC; 50 µM ^NDD protein in the cell titrated with 1 mM ^CDD peptide or variant, 20 °C, 50 mM sodium phosphate pH 6.5, 100 mM NaCl, one site binding model, three independent titrations.
Assay [3] concerns the target Kj12B N-terminal docking domain (Xenorhabdus stockiae KJ12.1). In words: ITC; 50 µM NDD (or Kj12C construct) in the cell titrated with 1 mM CDD peptide; 20 °C; 50 mM sodium phosphate pH 6.5, 100 mM NaCl; one site binding model; three independent titrations.
Assay [4] has as its target Kj12B-NDD K24R, K26Q, K28E (Xenorhabdus stockiae KJ12.1). The description is as above.
Assay [5] deals with Kj12B-NDD K26Q, K28E (Xenorhabdus stockiae KJ12.1). The assay is described as above.
Assay [6] addresses Kj12B-NDD K28E (Xenorhabdus stockiae KJ12.1). The description is as above.
For assay [7], the target named is Kj12C-NDD Q26K, E28A (Xenorhabdus stockiae KJ12.1). The assay is described as above.
For assay [8], the target named is Kj12C-NDD-Cterm (full-length Kj12C module) (Xenorhabdus stockiae KJ12.1). The assay is described as above.
In assay [9] the target is Kj12A-^NDD (N-terminal docking domain of Kj12A) (Xenorhabdus stockiae KJ12.1). The experiment in a line: ITC; 50 µM ^NDD protein in the cell titrated with 1 mM ^CDD peptide or variant, 20 °C, 50 mM sodium phosphate pH 6.5, 100 mM NaCl, one site binding model, three independent titrations.
The target of assay [10] is Kj12B-^NDD (N-terminal docking domain of Kj12B) (Xenorhabdus stockiae KJ12.1). The description is as above.
For assay [11], the target named is Kj12B thiolation domain with CDD (Xenorhabdus stockiae KJ12.1). In words: ITC; Kj12B T-domain-CDD in the cell (given as 50 mM) titrated with 1 mM Kj12C-NDD in the syringe; 20 °C; 50 mM sodium phosphate pH 6.5, 100 mM NaCl; one site binding model.

With Kj12A-CDDshort E1169R, H1171E peptide, the stoichiometry N (usually a count of units in the complex or per binding partner) in [1] was 1.3 sites.

Take “Kj12A-^CDD peptide (C-terminal docking domain of Kj12A)”: the Kd – broadly, a measure of binding affinity in units of concentration – in assay [2] stood at 100 µM.

As for “Kj12A-^CDD peptide with E1169R and H1171E (double mutant)”, the Kd in assay [2] was found to be 3.5 µM.

Kj12B-CDDshort R1565E peptide displayed a stoichiometry N in [3] of 1.15 sites.

As to Kj12B-CDDshort peptide, the stoichiometry N in assay [4] came to 0.97 sites; in assay [5], 1 sites; in assay [6], 1 sites; in [7], 1 sites; in [8] it was 1 sites. Further, the Kd in assay [5] was found to be 20.4 µM; in assay [6], 33 µM; in [7] it was 80 µM; in assay [8] it was 8 µM.

With “Kj12B-^CDD peptide (C-terminal docking domain of Kj12B)”, the figures for the Kd in [9], in assay [10] and in [2] were 8 µM, 62 µM and 8 µM, respectively.

Turning to Kj12B-^CDD peptide R1565E, in assay [10], the Kd was 13 µM.

In the case of Kj12B-^CDD_(short) peptide, the Kd in [2] worked out at 15 µM.

In assay [11], “Kj12C N-terminal docking domain (domain or fragment)” yielded a Kd of 19 µM and a stoichiometry N of 1.2 sites.
